The target of the assay is Rac1 (African green monkey (endogenous in COS-1)).

B1: oncogenic Dbl (domain or fragment)
chain: HVLNELIQTERVYVRELYTVLLGYRAEMDNPEMFDLMPPLLRNKKDILFGNMAEIYEFHNDIFLSSLENCAHAPERVGPCFLERKDDFQMYAKYCQNKPRSETIWRKYSECAFFQECQRKLKHRLRLDSYLLKPVQRITKYQLLLKELLKYSKDCEGSALLKKALDAMLDLLKSVNDSMHQIAINGYIGNLNELGKMIMQGGFSVWIGHKKGATKMKDLARFKPMQRHLFLYEKAIVFCKRRVESGEGSDRYPSYSFKHCWKMDEVGITEYVKGDNRKFEIWYGEKEEVYIVQASNVDVKMTWLKEIRNILLKQQELLTVKKRKQQDQLTERDKFQISLQQNDEKQQGAFISTEETELEHTSTVVEVCEAIASVQAEANTVWTEASQSAEISEEPAEWSSNYFYPTYDENEEENRPLMRPVSEMALLY
B1 had a percent inhibition by 1A-116 (50 uM, 24 h) of the SRE-luciferase activity elicited by the activated GEF in COS-1 cells of 60%.

B2: Tiam1 C1199 (aa 391-1590) (domain or fragment)
chain: LEMSTTNSESLEEAGSAHSDEQSSGTLSSPGQSDILLTAAQGTVRKAGALAVKNFLVHKKNKKVESATRRKWKHYWVSLKGCTLFFYETDGRSGIDHNSVPKHAVWVENSIVQAVPEHPKKDFVFCLSNSLGDAFLFQTTSQTELENWITAIHSACAAAVARHHHKEDTLRLLKSEIKKLEQKIDMDEKMKKMGEMQLSSVTDSKKKKTILDQIFVWEQNLEQFQMDLFRFRCYLASLQGGELPNPKRLLAFASRPTKVAMGRLGIFSVSSFHALVAARTGEIGVRRRTQAMSRSASKRRSRFSSLWGLDTTSKKKQGRPTINQVFGEGTDAVKRSLEGIFDDTVPDGKREKEVVLPSVHQHNPDCDIWVHEYFTPSWFCLPNNQPALTVVRPGDTARDTLELICKTHQLDHSAHYLRLKFLMENRVQFYIPQPEEDIYELLYKEIEICPKVTQNIHIEKSDAAADNYGFLLSSVDEDGIRRLYVNSVKETGLASKKGLKAGDEILEINNRAAGTLNSSMLKDFLSQPSLGLLVRTYPEPEGGVELLENPPHRVDGPVDLGESPLAFLTSNPGHSLSSEQGSSAETAPEEGEGPDLESSDETDHSSKSTEQVAAFCRSLHEMSPSDSSPSPQDATSPQLATTRQLSDADKLRKVICELLETERTYVKDLNCLMERYLKPLQKETFLTQDELDVLFGNLTEMVEFQVEFLKTLEDGVRLVPDLEKLEKVDQFKKVLFSLGGSFLYYADRFKLYSAFCASHTKVPKVLVKAKTDTAFKAFLDAQNPRQQHSSTLESYLIKPIQRVLKYPLLLRELFALTDAESEEHYHLDVAIKTMNKVASHINEMQKIHEEFGAVFDQLIAEQTGEKKEVADLSMGDLLLHTSVIWLNPPASLGKWKKEPELAAFVFKTAVVLVYKDGSKQKKKLVGSHRLSIYEEWDPFRFRHMIPTEALQVRALPSADAEANAVCEIVHVKSESEGRPERVFHLCCSSPESRKDFLKSVHSILRDKHRRQLLKTESLPSAQQYVPFGGKRLCALKGARPAMSRAVSAPSKSLGRRRRRLARNRFTIDSDAISASSPEKEPQQPAGGGDTDRWVEEQFDLAQYEEQDDIKETDILSDDDEFCESLKGASVDRDLQEQLQAASISQRARGRRTLDSHASRMTQLKKQAALSGINGGLESASEEVIWVRREDFAPSRKLNTE
B2 came in with a percent inhibition by 1A-116 (50 uM, 24 h) of the SRE-luciferase activity elicited by the activated GEF in COS-1 cells of 75%.

Values taken from article PMC7174510.
